Laboratory results: the supplement of paper PMC12667976

B1: library; numbered along this chain (parent)
chain: MATDAALRRLLRLHRTEIAVAVDSAFPLLHALADHDVVPEDKFQETLHLKEKEGCPQAFHALLSWLLTQDSTAILDFWRVLFKDYNLERYGRLQPILDSFPKDVDLSQPRKGRKPPAVPKALVPPPRLPTKRKASEEARAAAPAALTPRGTASPGSQLKAKPPKKPESSAEQQRLPLGNGIQTMSASVQRAVAMSSGDVPGARGAVEGILIQQVFESGGSKKCIQVGGEFYTPSKFEDSGSGKNKARSSSGPKPLVRAKGAQGAAPGGGEARLGQQGSVPAPLALPSDPQLHQKNEDECAVCRDGGELICCDGCPRAFHLACLSPPLREIPSGTWRCSSCLQATVQEVQPRAEEPRPQEPPVETPLPPGLRSAGEEVRGPPGEPLAGMDTTLVYKHLPAPPSAAPLPGLDSSALHPLLCVGPEGQQNLAPGARCGVCGDGTDVLRCTHCAAAFHWRCHFPAGTSRPGTGLRCRSCSGDVTPAPVEGVLAPSPARLAPGPAKDDTASHEPALHRDDLESLLSEHTFDGILQWAIQSMARPAAPFPS

Variants of: B1
Assay: AIRE transcriptional activation functional score (insulin promoter-GFP; nonsense median 0, synonymous median 1) (normalised score); higher = higher AIRE activity (more reporter activation)
Settings: with insulin promoter-GFP reporter in HEK293
Description: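 Deep mutational scan of full-length human AIRE (codon-optimized cDNA, DT-POPCode NNN libraries over three regions) integrated at a Bxb1 landing pad in HEK293 cells carrying an insulin core promoter-GFP reporter at a Flp-In site. Cells were sorted for the top 10% GFP about 14 days after transfection. Variant frequency log-ratios (select vs non-select, TileSeq) were rescaled so that the nonsense median is 0 and the synonymous median is 1, then averaged over biological replicates.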

AIRE transcriptional activation functional score, by site and new letter:
K42: R -0.281; G -0.403; T -0.0654; L 0.0963; H 0.0173; N 0.98; A -0.323; E -0.598; F 0.0107; Q 0.53; V 0.822; C -0.000636; W -0.0922; I 0.472; S 0.172; M 0.538; P -0.0735; D -1.69; Y -0.464
E40: L 0.272; W -0.133; N -0.324; I 0.121; R -0.956; H -0.15; S 0.167; V 0.0752; G -0.121; Y -0.301; K -0.28; T -0.598; P 0.61; Q 0.577; F -0.259
F59: M 0.656; L 0.0546; H 0.308; A 0.101; G 0.194; I 0.997; D 0.139; E 0.561; C -0.268; K 0.387
K52: M 2.46; F 0.16; A 1.01; L 1.11; G 0.435; N -0.178; H -0.455; Q -0.353; C -0.346; R 0.664; I 0.794; E 0.994; Y 0.198; P -0.13; T 1.21; W -0.861; S 0.883; D 0.601; V 1.38
A58: W 0.0998; G -0.107; N -1.13; Y -0.204; V 0.221; R 0.31; D 0.158; L 0.0439; E -0.0545; M -0.0857; S -0.0331; P -0.271; I -0.388; Q -0.509; T 0.166; K -1.14; H -0.263; F 0.0934; C -0.141
E53: I 1.49; D 0.593; M 0.544; L 1.14; W 1.2; R -0.133; N 0.151; S 0.701; F 0.611; Y -0.0622; V 1.36; G -0.0905; P -0.371; C 1.45; H 0.435; K 1.55; T 1.37; A 1.12; Q 0.948
G54: Y 0.671; E 0.772; N -1.62; W 0.0658; H 0.133; F -0.19; V 0.385; R -0.991; Q -0.474; M 0.663; P -0.123; I 0.416; D 0.773; S -0.808; A -0.977; T -1.14; L -0.0223; C 0.165
C55: L -0.0993; N -0.172; S -0.196; T 1.49; A -0.603; Y 0.622; P 0.602; R 0.308; D 0.495; Q -0.411; F 0.897; H 0.145; I 1.19; G -0.175; W -0.244; V 0.628
P56: N 0.0217; R 0.352; M -0.903; Q 0.746; Y -0.155; F 0.968; I 0.82; A 0.549; C -0.173; G 0.501; L -0.0629; H 0.985; E -1.9; W 0.16; K 1.48; V 0.829; S 0.484; T 0.544; D -0.102
H48: Q 1.5; V 1.53; T 0.372; S -0.318; R 1.64; C 0.651; P -0.897; Y 1.23; L 0.44; N 0.738; G 0.181
Q44: W 0.23; D 0.948; R 0.783; T 0.288; P -0.185; N 0.983; G 0.0554; E -0.441; V 0.735; A 0.712; M -0.749; C -0.0407; F 1.98; Y 0.0762; S 0.392; H -0.545; L 0.658; I 0.916; K 1.33
E51: Q 0.593; W -0.495; A 0.128; G 0.279; D 0.852; M -1.54; F -0.754; S -0.885; T -0.0714; C -0.0446; N -2.61; Y -0.775; P -0.179; R 0.215; I -1.54; K 0.391; H 0.0447; V 0.0642; L 0.248
K50: T 0.51; M 0.465; A -0.833; N 1.59; H 0.46; G 1.42; L 0.404; D 1.78; E 0.64; P -0.341; C 0.454; Y -0.654; R 0.745; S 2.07; F -0.139; V 0.73; I 0.717; W 0.149
E45: A -0.429; T -0.232; R -0.0981; Q 1.17; W 1.17; H -0.452; G 0.0251; S -0.772; Y -0.129; I -1.78; V 0.134; L 0.233; K 0.348; D 0.278; M -1.43; F 0.576; C -2.39
L47: R -0.624; G 0.313; W -0.717; T -0.713; S 0.462; K -1.23; C -0.421; F 0.568; V 0.302; I -0.62; A 0.636
T46: K -3.42; F -1.2; L -0.561; C 0.841; M 2.55; H 0.478; Y 0.503; G -0.878; E 1.4; A 0.0907; D -0.445; N -0.328; I 0.403; S 0.455; R 0.389; V -0.0333
F43: T -0.219; A -0.325; V 0.36; E -1.08; W 0.0722; Q -0.593; R 0.134; C 0.163; D -0.408; M 0.757; H -1.42; Y 0.108; I -0.197; S 0.0986; G 0.413; P 0.556; L 0.0431
L49: S -0.858; I -0.275; T -0.364; M 0.566; C -0.191; H -0.538; N -0.822; P -0.173; Y 0.268; A 0.327; D -0.689; F 0.262; G -0.0766; R 1.04; W -0.0359; V 0.492; Q -0.302
Q57: R 0.643; F 0.269; H -0.168; V 0.739; Y 0.535; W -0.29; T 0.369; L 1.41; S 0.217; K 1.12; N -0.0973; E 0.685; I 0.761; C -0.141; P -0.527; A 1.25; M -0.643; G -0.774
D41: R 0.0782; T 0.827; A 1.59; G 0.147; L 0.547; W 0.551; S 0.72; E 1.17; I -1.3; C 1.39; V 0.0716; F 0.468; N 1.79; P 0.148; K -1.32; H -1.75; Y 1.79
